What was measured:
Settings in all cases: protein: recombinant; tags: N-terminal His-SUMO removed by TEV; label: 5'-6-FAM; predicted intramolecular fold
[1] = target: T1, PARP4 BRCT-WGR-CAT K23/24Q (human, UniProt Q9UKK3 1-573, K23Q;K24Q); experiment: EMSA; 20 nM probe; rough estimate; FP: 50 mM Tris pH 7.5, 50 mM NaCl, 1 mM MgCl2, 0.05% NP40, 2 mM DTT, 5% glycerol, 25 ug/ml BSA, room temp 30 min; EMSA: 50 mM Tris pH 7.5, 50 mM NaCl, 4% Ficoll PM400, 0.05% NP40, 2 mM DTT, 0-18 uM protein, room temp 30 min, gel at 4 C
T1 sequence: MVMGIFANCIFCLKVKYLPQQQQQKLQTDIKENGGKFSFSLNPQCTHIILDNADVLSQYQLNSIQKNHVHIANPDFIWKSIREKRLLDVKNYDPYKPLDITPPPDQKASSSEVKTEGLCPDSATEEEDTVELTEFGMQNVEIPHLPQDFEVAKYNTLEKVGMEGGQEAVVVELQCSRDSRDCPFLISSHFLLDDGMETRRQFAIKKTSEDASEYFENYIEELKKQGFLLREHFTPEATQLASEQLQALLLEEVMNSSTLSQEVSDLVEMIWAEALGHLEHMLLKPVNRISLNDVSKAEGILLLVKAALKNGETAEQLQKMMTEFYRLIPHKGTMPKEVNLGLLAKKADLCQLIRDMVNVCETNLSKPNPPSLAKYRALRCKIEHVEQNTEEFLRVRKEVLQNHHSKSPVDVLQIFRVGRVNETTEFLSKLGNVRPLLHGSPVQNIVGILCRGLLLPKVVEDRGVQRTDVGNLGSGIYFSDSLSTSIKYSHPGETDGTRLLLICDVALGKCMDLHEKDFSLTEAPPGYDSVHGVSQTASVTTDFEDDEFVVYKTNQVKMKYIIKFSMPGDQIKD

[2] = target: T2, PARP4 BRCT WT (human, UniProt Q9UKK3 1-100); experiment: FP; 3 nM probe, probe concentration comparison; FP: 50 mM Tris pH 7.5, 50 mM NaCl, 1 mM MgCl2, 0.05% NP40, 2 mM DTT, 5% glycerol, 25 ug/ml BSA, room temp 30 min; EMSA: 50 mM Tris pH 7.5, 50 mM NaCl, 4% Ficoll PM400, 0.05% NP40, 2 mM DTT, 0-18 uM protein, room temp 30 min, gel at 4 C
T2 sequence: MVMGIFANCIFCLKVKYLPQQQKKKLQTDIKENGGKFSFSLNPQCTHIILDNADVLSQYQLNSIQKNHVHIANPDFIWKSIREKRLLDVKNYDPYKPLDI

[3] = target: T3, PARP4 BRCT F39Q (human, UniProt Q9UKK3 1-100, F39Q); experiment: FP; 3 nM probe; FP: 50 mM Tris pH 7.5, 50 mM NaCl, 1 mM MgCl2, 0.05% NP40, 2 mM DTT, 5% glycerol, 25 ug/ml BSA, room temp 30 min; EMSA: 50 mM Tris pH 7.5, 50 mM NaCl, 4% Ficoll PM400, 0.05% NP40, 2 mM DTT, 0-18 uM protein, room temp 30 min, gel at 4 C
T3 sequence: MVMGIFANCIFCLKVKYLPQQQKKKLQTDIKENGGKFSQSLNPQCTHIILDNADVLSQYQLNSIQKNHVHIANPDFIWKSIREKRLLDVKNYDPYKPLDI

[4] = target: T4, PARP4 BRCT K31Q (human, UniProt Q9UKK3 1-100, K31Q); experiment: as above
T4 sequence: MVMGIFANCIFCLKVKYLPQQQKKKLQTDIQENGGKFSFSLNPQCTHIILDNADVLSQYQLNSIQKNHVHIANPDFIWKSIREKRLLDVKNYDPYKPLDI

[5] = target: T5, PARP4 BRCT-WGR-CAT WT (human, UniProt Q9UKK3 1-573); experiment: FP; 3 or 15 nM probe; FP: 50 mM Tris pH 7.5, 50 mM NaCl, 1 mM MgCl2, 0.05% NP40, 2 mM DTT, 5% glycerol, 25 ug/ml BSA, room temp 30 min; EMSA: 50 mM Tris pH 7.5, 50 mM NaCl, 4% Ficoll PM400, 0.05% NP40, 2 mM DTT, 0-18 uM protein, room temp 30 min, gel at 4 C
T5 sequence: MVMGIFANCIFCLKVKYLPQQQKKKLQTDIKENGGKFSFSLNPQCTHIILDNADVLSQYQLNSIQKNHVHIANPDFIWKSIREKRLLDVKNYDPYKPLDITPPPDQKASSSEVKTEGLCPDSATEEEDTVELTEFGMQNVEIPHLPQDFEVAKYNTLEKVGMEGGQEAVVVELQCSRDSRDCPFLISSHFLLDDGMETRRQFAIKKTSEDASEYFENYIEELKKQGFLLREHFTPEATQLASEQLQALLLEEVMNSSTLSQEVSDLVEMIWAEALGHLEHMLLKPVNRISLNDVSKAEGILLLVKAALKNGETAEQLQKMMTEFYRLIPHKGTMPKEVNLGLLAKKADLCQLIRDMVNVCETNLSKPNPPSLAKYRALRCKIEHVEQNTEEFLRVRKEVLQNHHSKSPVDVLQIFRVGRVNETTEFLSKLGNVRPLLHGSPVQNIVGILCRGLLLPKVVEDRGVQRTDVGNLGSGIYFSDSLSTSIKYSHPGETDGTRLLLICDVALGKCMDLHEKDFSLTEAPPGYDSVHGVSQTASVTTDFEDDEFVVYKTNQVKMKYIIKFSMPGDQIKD

[6] = target: T2, PARP4 BRCT WT; experiment: FP; 30 nM probe, probe concentration comparison; FP: 50 mM Tris pH 7.5, 50 mM NaCl, 1 mM MgCl2, 0.05% NP40, 2 mM DTT, 5% glycerol, 25 ug/ml BSA, room temp 30 min; EMSA: 50 mM Tris pH 7.5, 50 mM NaCl, 4% Ficoll PM400, 0.05% NP40, 2 mM DTT, 0-18 uM protein, room temp 30 min, gel at 4 C

B1: vtRNA1-3 (structured_RNA)
RNA: GGCUGGCUUUAGCUCAGCGGUUACUUCGCGUGUCAUCAAACCACCUCUCUGGGUUGUUCGAGACCCGCGGGCGCUCUCCAGCCCUCUU
B1 was tested, and the Kd [1] was roughly 54 µM, the Kd [2] was 19 ± 3 µM and the Kd [3] was 35 ± 10 µM. It also gave a Kd [4] of 61 ± 12 µM, a Kd [5] of 27 ± 9 µM and a Kd [6] of 18 ± 3 µM.

From article PMC12212138, “Crystal structure and mutagenesis of a nucleic acid–binding BRCT domain in human PARP4”
